Laboratory results taken from the DeepSol protein solubility set.

Experiment: soluble on expression in E. coli; label from the status in PepcDB or PDB records

Row | Sequence | soluble on expression in E. coli
1 | AHHHHHHGSRGILDDIDKKIIEILQKDGKVPLREISKITGLAESTIHERIKRLRESGVIKKFTAVVNPEALGYNILAFILIKVKAGKYSEVASKLVKYPEIVEVYETTGDYDMVVKIRTKNSEELNNFLDMVGSIEGVEGTHTMIVLKVHKETTELPVK | soluble
2 | AHHHHHHGSRIVLAYSGGLDTSVILKLMQEKLGAEVITVTVDVGQKDDFEKIEEKAYKFGAVKHYYIDAKEEFAENYVCKAIKANALYENAYPLSTALARPLIVEKLVEVAKKEGAGIIAHGCTGKGNDQVRFNLGIKALMPEAEILQPVAEWNLTRDWEMEYAKKHGIPVSDKIYSIDENIWGRSIEGGVLEDPSIEPPEEVFEWTVSIEKAPDKPEYVTIGFENGVPVSLNGEKMKLLELILKLNEIAGKHGVGRIDHIEDRSVGIKSREVYEAPAAVTLIKAHQDLEKLTLTKWVIEFKSIVDSKWSWLVYNGLWYEPLRLALEGFIDEAEKAVNGEVTVKLWKGNAIVVGRKSDNALYDVKMATYEKFSTFDQKLAKGFIELFGMQSVLAYNMLHGVHSTSNISEIKEAIKTLE | soluble
3 | AHHHHHHGSTIKAPTLNVPGLGVDPLTQRIKEKEKKWKYKIAVLSGKGGVGKSTVAVNLTAALAKMGYFVGILDADIHGPNVAKMFGIGNTDIYAEKFEDGHFEMIPPTVDFMGQVTPIKVMSMGMMVPEDQPIIWRGSLVTKAIKQLLGDVMWGELDFMIIDFPPGTGDEILTVVQSIQLDAAIVVTTPQEVALLDTGKAVNMMKKMEVPYIAVIENMSYLICPHCGNKIDIFGEGGGEKLAEKEGVDFLGKVPIDLKAREASDLGIPIVLYGDTPAAKAFMEIAEKLVNKLKEIKGDGREK | not soluble
4 | AIAAELGLNEHHQNEVINYMRFARSKRGLRLKTVDSCFQDLKESRLVEDTFTIDEVSEVLNGLQAVVHSEVESELINTAYTNVLLLRQLFAQAEKWYLKLQTDISELENQELLEQVAEFEKAEITSSNKKPILDVTKPKLAPLNEGGTAELLNEEILRLQEENEKLKSRLKTIEIQATNALDEKSKLEKALQDLQLDQGNQKDFIKAQDLSNLENTVAALKSEFQKTLNDKTENQKSLEENLATAKHDLLRVREQLHMAEKELEKKFQQTAAYRNMKEILTKKNDQIKDLRKRLAQYEPED | soluble
5 | AIAGSLGIVTNDPSPYSVHFHLTGFGRFHRVSQNPTEFLVKQFVSFCEERRGLHEAARVVTTTVATTSVKGAQQALDEVYGKLHRDKSVRNVIIHCGVDASANCFRLEERAYNEASFSCPDESGWQPKVVPIDDTKPVDSFLVTSINIRQAVEELEKKGFHVKSSEDAGRFLCNWIYYQSLTRAQCEFSVKVVFVHFPPIQDSQEIQSYCEFLLQLLNVITTHELSSIDE | soluble
6 | AIAPAKERFFGFHPCKLVEQVEDCVRDLLEDALDGLETSLFRECALAFDALQENAVTSEHEHAKRLLLQQGLMRLRDALFTAFYDQMDRLQVYLLRNVFHIPPGLRIPNVNTSEDLVENWEQALGIDPSSVQIDANAEDEHAVDQELVALRQSLRVARQRLQRLCRERSVLEGAFHRLEGALQSRLASTLIPTEPEDPSGDCDALAKQVVTIARAVSELEAVVRSCRDQFLGDRSSAASGGAPPSGTVPAAAGGSDVGAQGALVRPPLELERIFDAHTKATRVDSLDAVDALRRALHRSC | soluble
7 | AIAPRNNKTSLIQKIASQAYATFTNCSSSAIEDNNKVFLEHQADLVALLSDIRAADLKIAPPTKVSTSSPSVPPVTYMHICETDVFSMGVFLLKSGASIPLHDHPGMHGMLKVLYGKVSIRCYDKLDKAESDTERHFDPPLLAFQGDDVRRAALRSSGQFSELSGPCVLSPFKDNLHEIDAVDGAAAFLDILAPPYDPDDGRDCHYYRVLQTAGKKSEQSGDDEAWLLEIPQPDDFWCGGEPYPGPEVTI | soluble
8 | AIARPSSLRQYLDSVPLPPCQEQQPKASAELDHKACYLCHSLLMLAGVVVSCQDITPDQWGELQLLCMQLDRHISTQIRESPQAMHRTMLKDLATQTYIRWQELLTHCQPQAQYFSPWKDI | soluble
9 | AIATLLDWMNVCSVEIPKRIIAKHFSACQHTNQEVFSLDDSLAGLDECLHCEDSQQNHRKVSPGQTLRIVMIGKTGVGKSAVGNTILNREVFESKPSANSITQSCRKASVYDTREIYVIDTPGILDTSKEKDIIKREIVKCIKVSAPGPHAFLLVIQIGRFTAEEQRAVQALQELFGEDASNYMIVLFTHGDLLKGQTIDQYVREGHIELRRVIQSCGGRYAVFNNTMKDRTQVKTLIDKIDQMVAVNGGECYTQEMFREAEEKIRQQKEKREIAELQEYQFSFLGILENRVTLFQRILLEGYREQFAIESGIYK | soluble
10 | AIATNDANHLESNCVEEQVQQSLREPWWWLRWRDTPRQQLRGTLFVYTATCPDEKIQRERGFAADHEQVYAFVSFGPEVETDPREHVVEIVKALTSMRSFVETLERTLFEDEDSEPAARTYTHDEPCSVAHHSADADQQFLVETVRHDRIAAAYSSMSQEMHTAPEGARPDCFSKGTSQDHETDTSQPILRKKDETDTWVVALGPDHLVASHTLAACGCALFLGLEWDFRACRSRSDDDFRIMELFQEDLKSRVTWLAPRLGLQHKHACSAQCKDQARNRDSSWDVLLREWLPQAIPGGPRHPQAM | soluble
11 | AIGRYTPADSTQELRDAARRLLPSSSLDKDLERLLRTWHKGYSTKTKRGERPCINSDTGPYTSDSVYIRRLSALPSAVPIQFNPAVKQCIKLYTEERRRLVRYMLSLADLYFPQIEETLDRHNLPIELKYLTIV | not soluble
12 | AKDDKVTVLSIERGNKLVYLEKLGLRGDQFYYKIERIRESNGVVYIYHTSYIPEQYINANYPNLEYYSSIYNRFKLDYHIHMNDEHFEEINEIVFPTPEHAASVLGVDEQFPTVLQTKITKLESTGQVLEYSETYKRSDYYK | soluble
13 | AKEDNIEMQGTVLETLPNTMFRVELENGHVVTAHISGKMRKNYIRILTGDKVTVELTPYDLSKGRIVFRSR | soluble
14 | AKITKVQVGEALVGDGNEVAHIDLIIGPRGSPAETAFCNGLVNNKHGFTSLLAVIAPNLPCKPNTLMFNKVTINDARQAVQMFGPAQHGVAMAVQDAVAEGIIPADEADDLYVLVGVFIHWEAADDAKIQKYNYEATKLSIQRAVNGEPKASVVTEQRKSATHPFAANA | soluble
15 | AKQAAQSTFNSFHEWAKQAEAMRNPSRMDIYKIYKQDAPHSHPMSDEQQEEFLHTLKALNGKNGIEVRTQDHDSVRNKKDRNLDKYIAESPDAKRFFYRIIPKHERREDKNQGRLTIGVQPQYATQLTRAMATLIGKESAITHGKVIGPACHGQMTDSAVLYINGDVAKAEKLGEKLKQMSGIPLDAFVEHTPLSMQSLSKGLSYAESILGDTRGHGMSRAEVISDALRMDGMPFLARLKLSLSANG | not soluble
16 | AKVIFVLAMDVSGKIASSVESWSSFEDRKNFRKITTEIGNVVMGRITFEEIGRPLPERLNVVLTRRPKTSNNPSLVFFNGSPADVVKFLEGKGYERVAVIGGKTVFTEFLREKLVDELFVTVEPYVFGKGIPFFDEFEGYFPLKLLEMRRLNERGTLFLKYSVEKSHR | soluble
17 | ALAETVSDFRLPNGLEVVVIEDHRAPVVTHMVWYRVGAADEPPGHSGIAHFLEHLMFKGTDEMSAGEFSATVEAQGGDDNAFTSWDYTAYFQRVAADRLDLMMKMEADRMRDLQMTEEDVRTERQVVLEERSQRTDSDPGAVFSEQSRAAAYLNHPYGIPIIGWRHEIEQLGREDAFSFYRTYYAPNNAILVVAGDVDPAEVRRMAEEHYGALEPTP | not soluble
18 | AMKNWKTSAESILTTGPVVPVIVVKKLEHAVPMAKALVAGGVRVLNVTLRTECAVDAIRAIAKEVPEAIVGAGTVLNPQQLAEVTEAGAQFAISPGLTEPLLKAATEGTIPLIPGISTVSELMLGMDYGLKEFKFFPAEANGGVKALQAIAGPFSQVRFCPTGGISPANYRDYLALKSVLCIGGSWLVPADALEAGDYDRITKLAREAVEGAKL | soluble
19 | AMKNYYSSNPTFYLGIDCIIFGFNEGEISLLLLKRNFEPAMGEWSLMGGFVQKDESVDDAAKRVLAELTGLENVYMEQVGAFGAIDRDPGERVVSIAYYALININEYDRELVQKHNAYWVNINELPALIFDHPEMVDKAREMMKQKASVEPIGFNLLPKLFTLSQLQSLYEAIYGEPMDKRNFRKRVAEMDFIEKTDKIDKLGSKRGAALYKFNGKAYRKDPKFKL | soluble
20 | ANFQYIITEKKGKNSSVGLIQLNRPKALNALCNGLIEELNQALETFEEDPAVGAIVLTGGEKAFAAGADIKEMQNRTFQDCYSGKFLSHWDHITRIKKPVIAAVNGYALGGGCELAMMCDIIYAGEKAQFGQPEILLGTIPGAGGTQRLTRAVGKSLAMEMVLTGDRISAQDAKQAGLVSKIFPVETLVEEAIQCAEKIANNSKIIVAMAKESVNAAFEMTLTEGNKLEKKLFYSTFATDDRREGMSAFVEKRKANFKDH | soluble
21 | ANTAFVSSACNTQKIPSGSPFNRNLRAMLADLRQNTAFSGYDYKTSRAGSGGAPTAYGRATCKQSISQSDCTACLSNLVNRIFSICNNAIGARVQLVDCFIQYEQRSF | soluble
22 | APMKLYGAVMSWNLTRCATALEEAGSDYEIVPINFATAEHKSPEHLVRNPFGQVPALQDGDLYLFESRAICKYAARKNKPELLREGNLEEAAMVDVWIEVEANQYTAALNPILFQVLISPMLGGTTDQKVVDENLEKLKKVLEVYEARLTKCKYLAGDFLSLADLNHVSVTLCLFATPYASVLDAYPHVKAWWSGLMERPSVQKVAALMKPSA | soluble
23 | ARNKALKADGAFNGVEKEGLFKAMKHYGYEGLAVLVSERGHYSLKKAADVLGLGQEGLVAVKTDANNRIVVDDLKTKIAELKEQNIKPIAVIGVAGTTETGSVDPLSQIAQVCQEHNCHFHVDAAWGGATLMSNHYRHLLEGVELADSVTIDAHKQLYIPMGAGMVLFKDPDAMKSIEHHAQYILRKGSKDLGSHTLEGSRSGMAMLVYAAMHIISRPGYELLIDQSIEKARYFADLIKQQDDFELVSEPELCLLTYRYLPPLIREALDKAEGTQKEKLNELINQLTQFIQKRQRETGKSFVSRTRLNPDQWQRMNTIVFRVVLANPLTTRDILSSVLDEQREIAKQAPSLTAKIEEMASDILGA | not soluble
24 | ARPAFVNKLWSMVNDKSNEKFIHWSTSGESIVVPNRERFVQEVLPKYFKHSNFASFVRQLNMYGWHKVQDVKSGSMLSNNDSRWEFENERHA | soluble
25 | ASGSDENDVVIIGGGPGGYVAAIKAAQLGFKTTCIEKRGALGGTCLNVGCIPSKALLHSSHMYHEAKHSFANHGVKVSNVEIDLAAMMGQKDKAVSNLTRGIEGLFKKNKVTYVKGYGKFVSPSEISVDTIEGENTVVKGKHIIIATGSDVKSLPGVTIDEKKIVSSTGALALSEIPKKLVVIGAGYIGLEMGSVWGRIGSEVTVVEFASEIVPTMDAEIRKQFQRSLEKQGMKFKLKTKVVGVDTSGDGVKLTVEPSAGGEQTIIEADVVLVSAGRTPFTSGLNLDKIGVETDKLGRILVNERFSTNVSGVYAIGDVIPGPMLAHKAEEDGVACVEYLAGKVGHVDYDKVPGVVYTNPEVASVGKTEEQVKETGVEYRVGKFPFMANSRAKAIDNAEGLVKIIAEKETDKILGVHIMAPNAGELIHEAAIALQYDASSEDIARVCHAHPTMSEAIKEAAMATYDKPIHI | soluble
26 | ASNFTQFVLVDNGGTGDVTVAPSNFANGVAEWISSNSRSQAYKVTCSVRQSSAQNRKYTIKVEVPKVATQTVGGVELPVAAWRSYLNMELTIPIFATNSDCELIVKAMQGLLKDGNPIPSAIAANSGIYANFTQFVLVDNGGTGDVTVAPSNFANGVAEWISSNSRSQAYKVTCSVRQSSAQNRKYTIKVEVPKVATQTVGGVELPVAAWRSYLNMELTIPIFATNSDCELIVKAMQGLLKDGNPIPSAIAANSGIY | soluble
